Our source for the % DOL 2 (fraction of antibody fully modified with 3-APA, LC-MS) values is patent publication US20210363177A1.

The target of assay [1] is Trastuzumab (glycan-intact) (Homo sapiens).

With “Activa TI microbial transglutaminase (Ajinomoto) (enzyme)”, in assay [1], the % DOL 2 (fraction of antibody fully modified with 3-APA, LC-MS) was 81%.

As to “recombinant Microbial transglutaminase from Zedira (catalog number T001) (enzyme)”, the % DOL 2 (fraction of antibody fully modified with 3-APA, LC-MS) is 100% with Pertuzumab and 69% with Panitumumab.
